Where two headings read alike, the source gives them in different places.
T1: human MerTK expressed on cells (human, UniProt Q12866 21-999)
T1 construct: whole, on cells; also called CHO-K1-hMerTK; CHO-K1-MerTK
T1 sequence (looked up): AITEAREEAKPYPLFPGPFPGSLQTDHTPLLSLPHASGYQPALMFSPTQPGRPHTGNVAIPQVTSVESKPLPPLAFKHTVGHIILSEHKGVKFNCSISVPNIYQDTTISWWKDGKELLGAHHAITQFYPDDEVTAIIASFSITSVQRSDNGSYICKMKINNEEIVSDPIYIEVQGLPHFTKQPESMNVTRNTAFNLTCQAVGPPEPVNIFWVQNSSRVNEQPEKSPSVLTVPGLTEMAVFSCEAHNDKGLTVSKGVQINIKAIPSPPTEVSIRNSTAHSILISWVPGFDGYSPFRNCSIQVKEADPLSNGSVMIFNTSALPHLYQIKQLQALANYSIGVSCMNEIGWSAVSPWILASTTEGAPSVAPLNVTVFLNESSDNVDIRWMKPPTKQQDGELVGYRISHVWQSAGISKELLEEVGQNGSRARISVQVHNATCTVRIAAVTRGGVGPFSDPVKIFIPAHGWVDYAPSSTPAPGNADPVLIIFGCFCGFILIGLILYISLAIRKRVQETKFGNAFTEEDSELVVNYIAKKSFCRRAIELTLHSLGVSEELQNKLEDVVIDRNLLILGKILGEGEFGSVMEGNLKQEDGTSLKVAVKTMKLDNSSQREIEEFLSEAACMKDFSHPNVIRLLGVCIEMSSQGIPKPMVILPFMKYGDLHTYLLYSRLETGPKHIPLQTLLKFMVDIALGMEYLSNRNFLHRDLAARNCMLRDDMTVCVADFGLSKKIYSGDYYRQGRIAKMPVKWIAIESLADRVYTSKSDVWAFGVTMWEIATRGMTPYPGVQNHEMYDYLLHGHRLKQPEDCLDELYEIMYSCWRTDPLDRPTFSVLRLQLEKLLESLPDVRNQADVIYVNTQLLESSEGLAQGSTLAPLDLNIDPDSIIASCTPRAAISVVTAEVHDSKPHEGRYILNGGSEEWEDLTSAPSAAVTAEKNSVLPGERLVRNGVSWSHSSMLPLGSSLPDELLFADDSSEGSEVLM

T2: Human MerTK-mouse Fc fusion protein (human, UniProt Q12866 21-499, limits assumed)
T2 construct: also called hMerTK; Human MerTK-mouse Fe fusion protein
T2 sequence (looked up): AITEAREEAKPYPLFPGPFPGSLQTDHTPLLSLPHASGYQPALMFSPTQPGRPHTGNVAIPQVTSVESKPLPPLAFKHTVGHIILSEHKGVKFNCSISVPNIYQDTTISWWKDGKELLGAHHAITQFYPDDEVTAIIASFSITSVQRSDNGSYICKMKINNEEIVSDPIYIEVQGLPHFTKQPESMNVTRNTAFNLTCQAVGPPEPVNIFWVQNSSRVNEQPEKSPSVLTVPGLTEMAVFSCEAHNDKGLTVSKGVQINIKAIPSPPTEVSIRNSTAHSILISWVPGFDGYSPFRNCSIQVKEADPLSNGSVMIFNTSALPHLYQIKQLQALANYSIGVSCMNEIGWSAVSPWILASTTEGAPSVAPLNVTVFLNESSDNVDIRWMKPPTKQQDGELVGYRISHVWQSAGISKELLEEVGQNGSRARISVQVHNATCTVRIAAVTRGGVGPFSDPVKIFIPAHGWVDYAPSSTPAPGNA


Tests used:
[1] = biological target: T1, human MerTK expressed on cells; assay: FACS on CHO-K1 cells overexpressing human MerTK, MFI (PE)
Protocol: (§1) To evaluate the binding property to the antigen expressed on the cells, the chimeric monoclonal antibodies were analyzed for their binding to human MerTK overexpressed on CHO-K1 cells by FACS. Briefly, human MerTK overexpressing CHO-K1 (CHO-K1-MerTK) cells were firstly incubated with 5-fold serially diluted mAbs starting at 20 nM at 4° C. for 1 hour. After washing with FACS buffer, the PE conjugated anti-human IgG-Fc secondary antibody was added to each well and incubated at 4° C., for 30 mins. The mean fluorescence intensity (MFI) of PE were evaluated by QuantAnalyzer 16.

[2] = biological target: T2, Human MerTK-mouse Fc fusion protein; assay: FACS blocking: binding of human MerTK-mouse Fc to Jurkat cells overexpressing human Gas6, MFI (AF488)
Protocol: (§2) To evaluate the blocking effects of anti-hMerTK mAbs on hMerTK binding to its ligand hGas6, a receptor blocking assay was set-up. Briefly, Jurkat cells engineered to overexpress human Gas6 were added to the 96-well microplates at a density of 5×10⁴ cells per well. Human MerTK-mouse Fe fusion protein (50 μL/well, […]) and the MerTK chimeric antibodies with a 3-fold serial dilution starting from 120 nM at a volume of 50 μL were added to the 96-well plates and incubated at 4° C. for 30 mins. After washing with FACS buffer, the plates were incubated with diluted Alex Fluor 488 conjugated goat anti-mouse IgG antibody for 30 mins at 4′C. After washing, the plates were analyzed by QuantAnalyzer 16.

[3] = biological target: T1, human MerTK expressed on cells; assay: FACS on CHO-K1 cells overexpressing human MerTK, MFI (PE); remark: listed apart in the source
Protocol: as §1

[4] = biological target: T2, Human MerTK-mouse Fc fusion protein; assay: FACS blocking: binding of human MerTK-mouse Fc to Jurkat cells overexpressing human Gas6, MFI (AF488); remark: listed apart in the source
Protocol: as §2

Binder | EC50 [1] | Top [1] | IC50 [2] | EC50 [3] | Top [3] | IC50 [4]
10F7D9 chimeric monoclonal antibody (antibody, V domains shown) VH: QIQLVQSGPELKKPGETVKISCKASGYTFTNYGMNWVKQAPGKGLKWMGWINTYTGEPTYADDFKGRFAFSLETSASTAYLQINNLKNEDLATYFCATYGHYAWFAYWGQGTLVTVSA VL: QIVLSQSPAILSASPGEKVTMTCRASSSVSYMHWYQQKSGSSPKPWIYATSNLASGVPARFSGSGSGTSYSLTISRVEAEDAATYFCQQWGTKPLTFGAGTKLELK |  |  |  | 0.04 nM | 10800 MFI (PE) | 0.696 nM
247E5A8 chimeric monoclonal antibody (antibody, V domains shown) VH: DVQLQESGPGLVKPSQSLSLTCSVTGYSITGGYYWTWIRQFPGNKLEWMGYISYDGDNNYNPSLKNRISITRDTSKNQFFLNLNSVTTEDTATYYCAREGGRLRTMDYWGQGTSVTVSS VL: QIVLTQSPAIMSASPGEKVTITCRASSSVNYMHWFQQKPGTSPKLWIYTTSNLASGVPARFSGSGSGTSYSLTISRMEAEDAATYYCQQRSSYPFTFGSGTKLEIK |  |  |  | 0.12 nM | 10800 MFI (PE) | 0.787 nM
276C2D1 chimeric monoclonal antibody (antibody, V domains shown) VH: QVQLQQSGPELVKPGASVKLSCKASGYTFTSYDINWVKQRPGLGLEWIGWIYPRDGYTKYNEKFKGKATLAVDTSSSTAYMELHSLTSEDSAVYFCARGYYSNLYYFDYWGQGTTLTVSS VL: EVVLTQSPPTMAASPGEKITITCSASSSISSNYLHWYQQKPGFSPKLLIYRTSNLASGVPARFSGSGSGTSYSLTIGTMEAEDVATYYCQQGRSIPLTFGAGTKLELK | 0.04 nM | 7750 MFI (PE) | 0.813 nM |  |  | 
280C6A3 chimeric monoclonal antibody (antibody, V domains shown) VH: QVQLQQSGPELVKPGASVKLSCKASGYSFTTYDINWVKQRPGQGLEWIGWIYPRDGSTKYNEKFKGKATLTLDTSSNTAYMGLHSLTSEDSAVYFCARGYYDNLYYFDYWGQGTTLTVSS VL: EIVLTQSPTTMAASPGEKITITCSASSSVSSNYLHWYQQKPGFSPKLLIYRTSNLASGVPARFSGSGSGTSYSLTIGTMEAEDVATYYCQQGRIVPLTFGAGTKLELK | 0.044 nM | 8310 MFI (PE) | 0.701 nM |  |  | 
300A5A3 chimeric monoclonal antibody (antibody, V domains shown) VH: QVQLQQSGPELVKPGASVKLSCKASGYTFTTYDINWVKQRPGLGLEWIGWIYPRDGYTKYNEKFKGKATLAVDTSSSTASMELHSLTSEDSAVYFCARGYYDNLYYFDNWGPGTTLTVSS VL: ENVLTQSPTTVAASPGEKITITCSASSIISSNYLHWYQQKPGFSPKLLIYRTSNLASGVPARFSGSGSGTSYSLTIGTMEAEDAATYYCQQGRSVPLTFGAGTKLELK | 0.076 nM | 8350 MFI (PE) | 0.867 nM |  |  | 

Further lines, results first:

EC50 [1] | Top [1] | IC50 [2] | EC50 [3] | Top [3] | IC50 [4] | Binder
0.19 nM | 5630 MFI (PE) | ~0.773 nM |  |  |  | 254B4D9 chimeric monoclonal antibody (antibody, V domains shown) VH: QIQLVQSGPELKKPGETVKISCKASGYTFTAYGMSWVKQAPGKGLQWMGWINTYSGVPTYTDDFKGRFAFSLEASASTAFLQINNLKNEDTSTYFCARRAAVVAKYWYFDVWGTGTTVTVSS VL: DIQMTQSPSSLFASLGGKVIITCKSSQDINKRISWYQHKPGKGPRLLIHSTSSLQPGIPLRFSGSGSGRDYSFSISNLEPEDIATYFCLQYDNLLTFGAGTKLELK
 |  |  | 0.054 nM | 10500 MFI (PE) | 0.802 nM | 85H8D5 chimeric monoclonal antibody (antibody, V domains shown) VH: QIQLVQSGPELKKPGETVKISCMASGYTFTTHGVTWVKQAPGQGLQRMGWINTYSGVPTYADDFKGRFVFSLETSANTAHLQINNLKNEDTATYFCARTNNYRYFDVWGTGTTVTVSS VL: QIVLSQSPAILSSSPGEKVTMTCRASSSVSYMHWYQQKPGSSPKPWIYATSNLASGVPARFSGSGSGTSYFLTISRVEAEDAATYYCQQWNTDPPTFGGGTKLEIK
 |  |  | 0.063 nM | 6040 MFI (PE) | 0.78 nM | 252C12B10 chimeric monoclonal antibody (antibody, V domains shown) VH: QVQLQQPGTELVKPGASVKLSCKTSGYTFTSYWMHWMKQRPGQGLEWLGHINPSTGGSNYNEKFKSKATLTVDKSSNTAYMQLSSLTSEDSAVYYCARPRGFYGYSYWYFDVWGSGTTVTVSS VL: DIQMTQTTSSLSASLGDRVTISCSASQDINNYLNWYQHKPDGTIKVLIYFTSSLHSGVPSRFSGSGSGTEYSLTISNLEPEDIATYYCQQYSKLPPTFGSGTKLEIK
 |  |  | 0.17 nM | 11000 MFI (PE) | 0.802 nM | 216G3D6 chimeric monoclonal antibody (antibody, V domains shown) VH: QVTLKESGPGILQPSQTLSLTCSFSGFSLSTSGMGVGWIRQPSGKGLEWLAHIWWDDDKHCNPALKSRLTISKDTSSNQVFLKIASLDTADTATYYCTQMTMTREFAYWGQGTLVTVSA VL: DIQMTQTISSLSASLGDRVTISCSAGQGISNYLNWYQQKPDGTVKLLIYYTSRLHSGVPSRFSGSGSGTDFSLTISNLEPEDIATYFCQQYSKFPYTFGGGTKLEIK
 |  |  | 0.12 nM | 7290 MFI (PE) | 0.824 nM | 252H9D5 chimeric monoclonal antibody (antibody, V domains shown) VH: QVTLRESGPGILQPSQTLSLTCSFSGFSLNTFGMGVGWIRQSSGKGLKWLAHIWWDDDKFYNPALKSRLTISKDTSKNQVFLKIANVDTTDTATYYCARIEGGLPYYYDYWGQGTPLIVSS VL: DIVMTQSQKIMSTSVGDRISVTCKASQIVGTNVVWYQQKPGQSPKALIYSTSYRYSGVPDRFTGSRSGTDFTLTISNVQSEDLANYFCQQYNSYPFTFGSGTKLEIK
0.064 nM | 7700 MFI (PE) | 0.779 nM |  |  |  | 293C2B7 chimeric monoclonal antibody (antibody, V domains shown) VH: QVQLQQSGPELVKPGASVKLSCKASGYTFTSYDINWVKQRPGQGLEWIGWIYPRDGYTKYKEKFKGKATLTVDTSSSTAYMELHSLTSEDSAVYFCARGFYSNLYYFDYWGQGTTLTVSS VL: EIVLTQSPTTMATSPGEKITITCSASSSISSNYLHWYQQKPGFSPKLLIYRTSNLASGVPDRFSGSGSGTSYSLTIGTMEAEDVATYYCQQGRSIPLTFGAGTKLELK
0.061 nM | 9460 MFI (PE) | 0.798 nM |  |  |  | 265F11B5 chimeric monoclonal antibody (antibody, V domains shown) VH: QVQLQQSGPELVKPGASVRLSCKASGYTFTTYDINWVKQRPGLGLEWIGWIYPRDGYTKYNEKFKGRATLAVDTSSSTAYMELHSLTSEDSAVYFCTRGYYDNLYYFDYWGQGTTLTVSS VL: EIVLTQSPTTVAASPGEKITITCSASSIISSNYFHWYQQRPGFSPKLLIYRTSNLASGVPARFSGSGSGTSYSLTIGTMEAEDVATYYCQQGRSVPLTFGAGTKLELK

Reference: patent publication US20260028422A1 (CONCEPT TO MEDICINE BIOTECH, published 2026)
